B1: LINE1-full (parent)
chain: UACGUAGGUGGUUUUCCCCUGAUAGUGCUAAGGGGGCCUGGAAGUUUGGACUGGGCAGAGCUCAACACAGCGUGGCAAAGUGGCUGUGGCUAGACUGCCUCUCUGGAUUCCUCGUCACUCAGCAGGGCAUCUCUGAGAGAAAUGCC

Variants of: B1
Experiment: self-cleavage, relative activity (ratio to wild type); higher = more cleavage; in vitro, sequencing; the parent is a self-cleaving ribozyme

Variant | self-cleavage
UACGUAGGUGGUUUUCCCCUGAUAGUGCUAAGGGGGCCUGGAAGUUUGGACUGGGCAGAGCUCAACACAGCGUGGCGAAGUGGCUGUGGCUAGACUGCCUCUCUGGAUUCCACGUCACUCAGCAGGGCAUCUCUGAGAGAAAUGCC [A77G U112A] | 2.32
UACGUAGGUGGUUUUCCCCUGAUAGUGCUAAGGGGGCCUGGAAGUUUGGACUGGGCAGAGCUCAACACAGCGUGGCGAAGUGGCUGUGGCUAGACUGCCUCUCUGGAUUCCCCGUCACUCAGCAGGGCAUCUCUGAGAGAAAUGCC [A77G U112C] | 2.18
UACGUAGGUGGUUUUCCCCUGAUAGUGCUAAGGGGGCCUGGAAGUUUGGACUGGGCAGAGCUCAACACAGCGUGGCGAAGUGGCUGUGGCUAGACUGCCUCUCUGGAUUCCUCGUCACACAGCAGGGCAUCUCUGAGAGAAAUGCC [A77G U119A] | 2.04
UACGUAGGUGGUUUUCCCCUGAUAGUGCUAAGGGGGCCUGGAAGUUUGGACUGGGCAGAGCUCAACACAGCGUGGCGAAGUGGCUGUGGCUAGACUGCCUCUCUGGAUUCCUCGUCACGCAGCAGGGCAUCUCUGAGAGAAAUGCC [A77G U119G] | 1.39
UACGUAGGUGGUUUUCCCCUGAUAGUGCUAAGGGGGCCUGGAAGUUUGGACUGGGCAGAGCUCAACACAGCGUGGCGAAGUGGCUGUGGCUAGACUGCCUCUCUGGAUUCCUCGUCACUCAGCAGGGCAUCCCUGAGAGAAAUGCC [A77G U132C] | 2.73
UACGUAGGUGGUUUUCCCCUGAUAGUGCUAAGGGGGCCUGGAAGUUUGGACUGGGCAGAGCUCAACACAGCGUGGCGAAGUGGCUGUGGCUAGACUGCCUCUCUGGAUUCCUCGUCACUCAGCAGGGCAUCUCCGAGAGAAAUGCC [A77G U134C] | 2.54
UACGUAGGUGGUUUUCCCCUGAUAGUGCUAAGGGGGCCUGGAAGUUUGGACUGGGCAGAGCUCAACACAGCGUGGCGAAGUGGCUGUGGCUAGACUGCCUCUCUGGAUUCCUCGUCACUCAGCAGGGCAUCUCUGAGAGAAAAGCC [A77G U143A] | 1.85
UACGUAGGUGGUUUUCCCCUGAUAGUGCUAAGGGGGCCUGGAAGUUUGGACUGGGCAGAGCUCAACACAGCGUGGCGAAGUGGCUGUGGCUAGACUGCCUCUCUGGAUUCCUCGUCACUCAGCAGGGCAUCUCUGAGAGAAACGCC [A77G U143C] | 2.2
UACGUAGGUGGUUUUCCCCUGAUAGUGCUAAGGGGGCCUGGAAGUUUGGACUGGGCAGAGCUCAACACAGCGUGGCGAAGUGGCUGUGGCUAGACUGCCUCUCUGGAUUCCUCGUCACUCAGCAGGGCAUCUCUGAGAGAAAGGCC [A77G U143G] | 2.99
UACGUAGGUGGUUUUCCCCUGAUAGUGCUAAGGGGGCCUGGAAGUUUGGACUGGGCAGAGCUCAACACAGCGUGGCUAUGUGGCUGUGGCUAGACUGCCUCUCUGGAUUCCUCGUCACUCAGCAGGGCAUCUCUGAGAGAAAUGCC [A77U A79U] | 1.89
UACGUAGGUGGUUUUCCCCUGAUAGUGCUAAGGGGGCCUGGAAGUUUGGACUGGGCAGAGCUCAACACAGCGUGGCUAAGUGGCUGUGGCUAGUCUGCCUCUCUGGAUUCCUCGUCACUCAGCAGGGCAUCUCUGAGAGAAAUGCC [A77U A94U] | 0.2
UACGUAGGUGGUUUUCCCCUGAUAGUGCUAAGGGGGCCUGGAAGUUUGGACUGGGCAGAGCUCAACACAGCGUGGCUAAGUGGCUGUGGCUAGACUGCCUCUCUGGCUUCCUCGUCACUCAGCAGGGCAUCUCUGAGAGAAAUGCC [A77U A107C] | 1.21
UACGUAGGUGGUUUUCCCCUGAUAGUGCUAAGGGGGCCUGGAAGUUUGGACUGGGCAGAGCUCAACACAGCGUGGCUAAGUGGCUGUGGCUAGACUGCCUCUCUGGGUUCCUCGUCACUCAGCAGGGCAUCUCUGAGAGAAAUGCC [A77U A107G] | 1.29
UACGUAGGUGGUUUUCCCCUGAUAGUGCUAAGGGGGCCUGGAAGUUUGGACUGGGCAGAGCUCAACACAGCGUGGCUAAGUGGCUGUGGCUAGACUGCCUCUCUGGAUUCCUCGUCCCUCAGCAGGGCAUCUCUGAGAGAAAUGCC [A77U A117C] | 1.76
UACGUAGGUGGUUUUCCCCUGAUAGUGCUAAGGGGGCCUGGAAGUUUGGACUGGGCAGAGCUCAACACAGCGUGGCUAAGUGGCUGUGGCUAGACUGCCUCUCUGGAUUCCUCGUCGCUCAGCAGGGCAUCUCUGAGAGAAAUGCC [A77U A117G] | 1.6
UACGUAGGUGGUUUUCCCCUGAUAGUGCUAAGGGGGCCUGGAAGUUUGGACUGGGCAGAGCUCAACACAGCGUGGCUAAGUGGCUGUGGCUAGACUGCCUCUCUGGAUUCCUCGUCUCUCAGCAGGGCAUCUCUGAGAGAAAUGCC [A77U A117U] | 1.21
UACGUAGGUGGUUUUCCCCUGAUAGUGCUAAGGGGGCCUGGAAGUUUGGACUGGGCAGAGCUCAACACAGCGUGGCUAAGUGGCUGUGGCUAGACUGCCUCUCUGGAUUCCUCGUCACUCUGCAGGGCAUCUCUGAGAGAAAUGCC [A77U A121U] | 1.27
UACGUAGGUGGUUUUCCCCUGAUAGUGCUAAGGGGGCCUGGAAGUUUGGACUGGGCAGAGCUCAACACAGCGUGGCUAAGUGGCUGUGGCUAGACUGCCUCUCUGGAUUCCUCGUCACUCAGCGGGGCAUCUCUGAGAGAAAUGCC [A77U A124G] | 0.79
UACGUAGGUGGUUUUCCCCUGAUAGUGCUAAGGGGGCCUGGAAGUUUGGACUGGGCAGAGCUCAACACAGCGUGGCUAAGUGGCUGUGGCUAGACUGCCUCUCUGGAUUCCUCGUCACUCAGCAGGGCCUCUCUGAGAGAAAUGCC [A77U A129C] | 1.28
UACGUAGGUGGUUUUCCCCUGAUAGUGCUAAGGGGGCCUGGAAGUUUGGACUGGGCAGAGCUCAACACAGCGUGGCUAAGUGGCUGUGGCUAGACUGCCUCUCUGGAUUCCUCGUCACUCAGCAGGGCGUCUCUGAGAGAAAUGCC [A77U A129G] | 1.45

Variant | self-cleavage
UACGUAGGUGGUUUUCCCCUGAUAGUGCUAAGGGGGCCUGGAAGUUUGGACUGGGCAGAGCUCAACACAGCGUGGCUAAGUGGCUGUGGCUAGACUGCCUCUCUGGAUUCCUCGUCACUCAGCAGGGCAUCUCUGCGAGAAAUGCC [A77U A136C] | 1.67
UACGUAGGUGGUUUUCCCCUGAUAGUGCUAAGGGGGCCUGGAAGUUUGGACUGGGCAGAGCUCAACACAGCGUGGCUAAGUGGCUGUGGCUAGACUGCCUCUCUGGAUUCCUCGUCACUCAGCAGGGCAUCUCUGGGAGAAAUGCC [A77U A136G] | 1.19
UACGUAGGUGGUUUUCCCCUGAUAGUGCUAAGGGGGCCUGGAAGUUUGGACUGGGCAGAGCUCAACACAGCGUGGCUAAGUGGCUGUGGCUAGACUGCCUCUCUGGAUUCCUCGUCACUCAGCAGGGCAUCUCUGAGAGACAUGCC [A77U A141C] | 1.32
UACGUAGGUGGUUUUCCCCUGAUAGUGCUAAGGGGGCCUGGAAGUUUGGACUGGGCAGAGCUCAACACAGCGUGGCUAAGUGGCUGUGGCUAGACUGCCUCUCUGGAUUCCUCGUCACUCAGCAGGGCAUCUCUGAGAGAGAUGCC [A77U A141G] | 1.4
UACGUAGGUGGUUUUCCCCUGAUAGUGCUAAGGGGGCCUGGAAGUUUGGACUGGGCAGAGCUCAACACAGCGUGGCUAAGUGGCUGUGGCUAGACUGCCUCUCUGGAUUCCUCGUCACUCAGCAGGGCAUCUCUGAGAGAUAUGCC [A77U A141U] | 1.07
UACGUAGGUGGUUUUCCCCUGAUAGUGCUAAGGGGGCCUGGAAGUUUGGACUGGGCAGAGCUCAACACAGCGUGGCUAAGUGGCUGUGGCUAGACUGCCUCUCUGGAUUCCUCGUCACUCAGCAGGGCAUCUCUGAGAGAAGUGCC [A77U A142G] | 1.46
UACGUAGGUGGUUUUCCCCUGAUAGUGCUAAGGGGGCCUGGAAGUUUGGACUGGGCAGAGCUCAACACAGCGUGGCUAAGUGGUUGUGGCUAGACUGCCUCUCUGGAUUCCUCGUCACUCAGCAGGGCAUCUCUGAGAGAAAUGCC [A77U C84U] | 0.08
UACGUAGGUGGUUUUCCCCUGAUAGUGCUAAGGGGGCCUGGAAGUUUGGACUGGGCAGAGCUCAACACAGCGUGGCUAAGUGGCUGUGGUUAGACUGCCUCUCUGGAUUCCUCGUCACUCAGCAGGGCAUCUCUGAGAGAAAUGCC [A77U C90U] | 0.03
UACGUAGGUGGUUUUCCCCUGAUAGUGCUAAGGGGGCCUGGAAGUUUGGACUGGGCAGAGCUCAACACAGCGUGGCUAAGUGGCUGUGGCUAGACUGCCUCUCUGGAUUCCUAGUCACUCAGCAGGGCAUCUCUGAGAGAAAUGCC [A77U C113A] | 0.92
UACGUAGGUGGUUUUCCCCUGAUAGUGCUAAGGGGGCCUGGAAGUUUGGACUGGGCAGAGCUCAACACAGCGUGGCUAAGUGGCUGUGGCUAGACUGCCUCUCUGGAUUCCUCGUCACUCAGCAGGGCAUCUCUGAGAGAAAUGCA [A77U C146A] | 1.23
UACGUAGGUGGUUUUCCCCUGAUAGUGCUAAGGGGGCCUGGAAGUUUGGACUGGGCAGAGCUCAACACAGCGUGGCUAAGUGACUGUGGCUAGACUGCCUCUCUGGAUUCCUCGUCACUCAGCAGGGCAUCUCUGAGAGAAAUGCC [A77U G83A] | 0.74
UACGUAGGUGGUUUUCCCCUGAUAGUGCUAAGGGGGCCUGGAAGUUUGGACUGGGCAGAGCUCAACACAGCGUGGCUAAGUGGCUGUGGCUAAACUGCCUCUCUGGAUUCCUCGUCACUCAGCAGGGCAUCUCUGAGAGAAAUGCC [A77U G93A] | 0.02
UACGUAGGUGGUUUUCCCCUGAUAGUGCUAAGGGGGCCUGGAAGUUUGGACUGGGCAGAGCUCAACACAGCGUGGCUAAGUGGCUGUGGCUAGACUACCUCUCUGGAUUCCUCGUCACUCAGCAGGGCAUCUCUGAGAGAAAUGCC [A77U G97A] | 0.07
UACGUAGGUGGUUUUCCCCUGAUAGUGCUAAGGGGGCCUGGAAGUUUGGACUGGGCAGAGCUCAACACAGCGUGGCUAAGUGGCUGUGGCUAGACUUCCUCUCUGGAUUCCUCGUCACUCAGCAGGGCAUCUCUGAGAGAAAUGCC [A77U G97U] | 0.09
UACGUAGGUGGUUUUCCCCUGAUAGUGCUAAGGGGGCCUGGAAGUUUGGACUGGGCAGAGCUCAACACAGCGUGGCUAAGUGGCUGUGGCUAGACUGCCUCUCUGGAUUCCUCAUCACUCAGCAGGGCAUCUCUGAGAGAAAUGCC [A77U G114A] | 1.65
UACGUAGGUGGUUUUCCCCUGAUAGUGCUAAGGGGGCCUGGAAGUUUGGACUGGGCAGAGCUCAACACAGCGUGGCUAAGUGGCUGUGGCUAGACUGCCUCUCUGGAUUCCUCGUCACUCAGCAGAGCAUCUCUGAGAGAAAUGCC [A77U G126A] | 1.46
UACGUAGGUGGUUUUCCCCUGAUAGUGCUAAGGGGGCCUGGAAGUUUGGACUGGGCAGAGCUCAACACAGCGUGGCUAAGCGGCUGUGGCUAGACUGCCUCUCUGGAUUCCUCGUCACUCAGCAGGGCAUCUCUGAGAGAAAUGCC [A77U U81C] | 1.47
UACGUAGGUGGUUUUCCCCUGAUAGUGCUAAGGGGGCCUGGAAGUUUGGACUGGGCAGAGCUCAACACAGCGUGGCUAAGUGGCAGUGGCUAGACUGCCUCUCUGGAUUCCUCGUCACUCAGCAGGGCAUCUCUGAGAGAAAUGCC [A77U U85A] | 0.07
UACGUAGGUGGUUUUCCCCUGAUAGUGCUAAGGGGGCCUGGAAGUUUGGACUGGGCAGAGCUCAACACAGCGUGGCUAAGUGGCUGUGGCUAGACAGCCUCUCUGGAUUCCUCGUCACUCAGCAGGGCAUCUCUGAGAGAAAUGCC [A77U U96A] | 0.06
